Experimental data from paper PMC10958042.

B1: ATGL (PNPLA2, patatin-like phospholipase domain-containing protein 2), human, full length / G0S2 (G0/G1 switch protein 2), human (parent)
chain 1: MFPREKTWNISFAGCGFLGVYYVGVASCLREHAPFLVANATHIYGASAGALTATALVTGVCLGEAGAKFIEVSKEARKRFLGPLHPSFNLVKIIRSFLLKVLPADSHEHASGRLGISLTRVSDGENVIISHFNSKDELIQANVCSGFIPVYCGLIPPSLQGVRYVDGGISDNLPLYELKNTITVSPFSGESDICPQDSSTNIHELRVTNTSIQFNLRNLYRLSKALFPPEPLVLREMCKQGYRDGLRFLQRNGLLNRPNPLLALPPARPHGPEDKDQAVESAQAEDYSQLPGEDHILEHLPARLNEALLEACVEPTDLLTTLSNMLPVRLATAMMVPYTLPLESALSFTIRLLEWLPDVPEDIRWMKEQTGSICQYLVMRAKRKLGRHLPSRLPEQVELRRVQSLPSVPLSCAAYREALPGWMRNNLSLGDALAKWEECQRQLLLGLFCTNVAFPPEALRMRAPADPAPAPADPASPQHQLAGPAPLLSTPAPEARPVIGALGL
chain 2: METVQELIPLAKEMMAQKRKGKMVKLYVLGSVLALFGVVLGLMETVCSPFTAARRLRDQEAAVAELQAALERQALQKQALQEKGKQQDTVLGGRALSNRQHAS

Variants of: B1
Assay: LUMIER: Protein A-ATGL variant and firefly luciferase-partner co-expressed in HEK293T, lysates immunoprecipitated on IgG-coated plates, co-precipitated partner measured as luciferase luminescence
Details: with G0S2 (G0/G1 switch protein 2), transient co-transfection, IgG-coated LUMITRAC plates, 2 h at 4 °C, three PBS washes, Bright-Glo luciferase reagent, triplicates per assay, two …, scale: log2 fold change of co-immunoprecipitated luminescence relative to wild-type ATGL within each experiment

screen value (parent: 0.26, not graded)	screen value (parent: 0.56, not graded)	Variant
-0.413	-0.671	chain 1 L159A
-2.65	-2.45	chain 1 L102K
-1.67	-2.25	chain 1 L62A
-1.38	-1.99	chain 1 L62K
-0.308	-0.181	chain 1 E125L
0.751	0.00762	chain 1 G66A
-0.176	-0.16	chain 1 G66L
-0.0587	-0.569	chain 1 R95L
-2.28	-2.66	chain 1 G189E
-0.115	-0.287	chain 1 F348E
0.72	-0.082	chain 1 A453E
-0.556	-0.22	chain 1 R329E
0.00238	-0.218	chain 1 E314A
-1.32	-1.71	chain 1 Q396A
-0.0286	-0.429	chain 1 R113L
0.927	-0.0371	chain 1 R113K
-0.675	-0.33	chain 1 S87A
-1.36	-1.64	chain 1 P258L
-2.09	-2.9	chain 1 V328A
0.251	-0.642	chain 1 K92L
-0.0704	6.88e-05	chain 1 P103K
-1.68	-2.61	chain 1 G153K
-0.535	-0.748	chain 1 K275A
-0.634	0.0997	chain 1 L178A
-0.0735	0.169	chain 1 F35E
-0.0501	0.0613	chain 1 S158E
0.411	0.335	chain 1 R163K
0.461	-0.0543	chain 1 A434L
-0.622	-0.673	chain 1 L261E
